Data as given in US20080299140A1, “Immunogenic Composition and Peptide Sequences for Prevention and Treatment of an Hsv Condition” (priority 2002, published 2008).

Columns and labels:
[1] = target: HLA-DR(α1*0101,α1*1501) (human); assay: reference IC50 of the tracer peptide in the HLA class II competition assay
[2] = target: HLA-DR(α1*0101,α1*1101) (human); assay: as above
[3] = target: DP (α1*0101, α1*0402) (human); assay: competition assay on purified HLA; tracer bOxy 271-287
[4] = target: HLA-DP(α1*0101,α1*0401) (human); assay: as above
[5] = target: DR11=HLA-DR(α1*0101,α1*1101) (human); assay: HLA class II competition binding assay, biotinylated tracer peptide
[6] = target: DR3=HLA-DR(α1*0101,α1*0301) (human); assay: as above
[7] = target: DR15=HLA-DR(α1*0101,α1*1501) (human); assay: as above
[8] = target: DR13=HLA-DR(α1*0101,α1*1301) (human); assay: as above
[9] = target: DRB3=HLA-DR(α1*0101,α3*0101) (human); assay: as above
[10] = target: DRB4=HLA-DR(α1*0101,α4*0101) (human); assay: as above
[11] = target: DR4=HLA-DR(α1*0101,α1*0401) (human); assay: as above
[12] = target: DP401=HLA-DP(α1*0101,α1*0401) (human); assay: as above
[13] = target: DRB5=HLA-DR(α1*0101,α5*0101) (human); assay: as above
[14] = target: DP402=HLA-DR(α1*0101,α1*0402) (human); assay: as above
[15] = target: DR7=HLA-DR(α1*0101,α1*0701) (human); assay: as above
[16] = target: HLA-DR(α1*0101,α1*1301) (human); assay: competition assay on purified HLA; tracer B1 (21-36)
[17] = target: HLA-DR(α1*0101,α5*0101) (human); assay: competition assay on purified HLA; tracer HA (307-319)
[18] = target: HLA-DR(α1*0101,α1*1101) (human); assay: as above
[19] = target: HLA-DR(α1*0101,α1*0401) (human); assay: as above
[20] = target: HLA-DR(α1*0101,α3*0101) (human); assay: competition assay on purified HLA; tracer LOL (191-210)
[21] = target: HLA-DR(α1*0101,α1*0301) (human); assay: competition assay on purified HLA; tracer MT (2-16)
[22] = target: HLA-DR(α1*0101,α1*1501) (human); assay: competition assay on purified HLA; tracer A3 (152-166)
[23] = target: HLA-DR(α1*0101,α1*0701) (human); assay: competition assay on purified HLA; tracer YKL
[24] = target: HLA-DR(α1*0101,α4*0101) (human); assay: competition assay on purified HLA; tracer E2/E168
[25] = target: DR1=HLA-DR(α1*0101,α1*0101) (human); assay: HLA class II competition binding assay, biotinylated tracer peptide
[26] = target: HLA-DR(α1*0101,α1*0101) (human); assay: competition assay on purified HLA; tracer HA (307-319)

A3 (152-166) (peptide)
IC50 [1]: 0.013 µM

HA (307-319) (peptide)
IC50 [2]: 0.052 µM

HSV1 29 (gD1-23) (peptide)
IC50 [3]: 1.63 µM | IC50 [4]: 17.6 µM | IC50 [5]: 5.25 µM | IC50 [6]: 0.12 µM | IC50 [7]: 24.5 µM | IC50 [8]: > 100 µM | IC50 [9]: 1.4 µM | IC50 [10]: 52.5 µM | IC50 [11]: 0.082 µM | IC50 [12]: 17.6 µM | IC50 [13]: 0.008 µM | IC50 [14]: 1.63 µM | IC50 [15]: 0.894 µM | IC50 [16]: > 100 µM | IC50 [17]: 0.008 µM | IC50 [18]: 5.25 µM | IC50 [19]: 0.082 µM | IC50 [20]: 1.4 µM | IC50 [21]: 0.12 µM | IC50 [22]: 24.5 µM | IC50 [23]: 0.894 µM | IC50 [24]: 52.5 µM

HSV1 33 (gD121-152) (peptide)
IC50 [3]: 0.065 µM | IC50 [4]: 0.083 µM | IC50 [5]: 0.289 µM | IC50 [6]: 0.066 µM | IC50 [7]: 0.002 µM | IC50 [25]: 0.053 µM | IC50 [9]: 0.226 µM | IC50 [10]: 0.319 µM | IC50 [11]: 0.006 µM | IC50 [12]: 0.083 µM | IC50 [13]: 0.134 µM | IC50 [14]: 0.065 µM | IC50 [15]: 0.019 µM | IC50 [17]: 0.134 µM | IC50 [26]: 0.053 µM | IC50 [18]: 0.289 µM | IC50 [19]: 0.008 µM | IC50 [20]: 0.226 µM | IC50 [21]: 0.066 µM | IC50 [22]: 0.002 µM | IC50 [23]: 0.019 µM | IC50 [24]: 0.319 µM

HSV1 35 (gD287-317) (peptide)
IC50 [3]: > 100 µM | IC50 [4]: > 100 µM | IC50 [5]: 25 µM | IC50 [6]: 19.5 µM | IC50 [7]: 6.79 µM | IC50 [25]: 3.16 µM | IC50 [8]: > 100 µM | IC50 [9]: 5 µM | IC50 [10]: 3.26 µM | IC50 [11]: 0.6 µM | IC50 [12]: > 100 µM | IC50 [13]: 4.5 µM | IC50 [14]: > 100 µM | IC50 [16]: > 100 µM | IC50 [17]: 4.5 µM | IC50 [26]: 3.16 µM | IC50 [18]: 25 µM | IC50 [19]: 0.6 µM | IC50 [20]: 5 µM | IC50 [21]: 19.5 µM | IC50 [22]: 6.79 µM | IC50 [24]: 3.26 µM

HSV1 37 (gD200-234) (peptide)
IC50 [3]: 0.167 µM | IC50 [5]: 0.044 µM | IC50 [6]: 0.307 µM | IC50 [7]: 0.013 µM | IC50 [25]: 0.004 µM | IC50 [8]: 2.05 µM | IC50 [9]: 0.041 µM | IC50 [10]: 3.74 µM | IC50 [11]: 0.04 µM | IC50 [13]: 0.068 µM | IC50 [14]: 0.167 µM | IC50 [15]: 0.2 µM | IC50 [16]: 2.05 µM | IC50 [17]: 0.068 µM | IC50 [26]: 0.004 µM | IC50 [18]: 0.044 µM | IC50 [19]: 0.04 µM | IC50 [20]: 0.041 µM | IC50 [21]: 0.307 µM | IC50 [22]: 0.013 µM | IC50 [23]: 0.2 µM | IC50 [24]: 3.74 µM

HSV1 39 (gD332-358) (peptide)
IC50 [3]: > 100 µM | IC50 [5]: 0.005 µM | IC50 [7]: 0.95 µM | IC50 [9]: 2.31 µM | IC50 [10]: 0.703 µM | IC50 [11]: 5.87 µM | IC50 [13]: 0.031 µM | IC50 [14]: > 100 µM | IC50 [15]: 0.274 µM | IC50 [17]: 0.031 µM | IC50 [18]: 0.005 µM | IC50 [19]: 5.87 µM | IC50 [20]: 2.31 µM | IC50 [22]: 0.95 µM | IC50 [23]: 0.274 µM | IC50 [24]: 0.703 µM
